Source: the nanobody polyreactivity screen of Harvey et al. (2022)

Assay: yeast display, Sf9 membrane polyspecificity reagent, FACS + sequencing; frameworks hold sequencing errors
Procedure, shortened: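 Genes from sorted yeast were amplified by colony PCR, read by MiSeq 2 × 250 sequencing and filtered on CDR length. These cells carried a synthetic nanobody library in Saccharomyces cerevisiae BJ5465 and were sorted by FACS into low and high (top ~1%) gates on anti-HA and streptavidin fluorescence. Polyreactivity is labelled according to the gate of origin.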

| Sequence | polyreactivity (PSR sort gate) |
| --- | --- |
| QVQLVESGGGLVQAGGSHRLSCAASGSIFSWYAMGWYRQAPGKVRELVAAITWTRGSTYYADSVKGRFTISRDTANNTVYLQMKSLKPDDSAVYYCAARRVVYRYYWYSAYVYWGQGTQVTVSS | high polyreactivity |
| QVQLVESGGGLVQAGGSIRLSCAASGRISTYYTMGWYRQAPGKERELVAAISWSGTSTYYADSVKGRFTISRDNAKNTVYLQMNSLKPEDTAVYYCNARWRYPLDSVTDDYWGQGTQVTVSS | high polyreactivity |
| QVQLVESGGGLVQAGGSLRLSCAASGPIFKRNAMGWYRQAPGKERELVAAISGSGGRTNYADSVKGRFTISRDTAKNTVYLQMNSLKPEDTAVYYCAARANFFGWPKSYYYLGQGTQVTVSS | high polyreactivity |
| QVQLVESGGGLVQAGGSLRLSCAASGNIISTYAMGWYRQAPGKERELVAAITSSSARTYYADSVKGRFTISRDNAKNTVYLQLNSLKPEDTAVYYCATRTGIRQDLVHLYRVYYWGQGTQVTVSS | high polyreactivity |
| QVQLVESGGGLVQAGGSLRLICAASGFIFGSYAMGWYRQAPAKERELVAAINYDGGSTYYADSVKGRFTISRDNAKNTVYLQMNSMKPEDTAVYYCAADLYYTHMDYWGQGTQVTVSS | low polyreactivity |
| QDQLVESGGCLVQAGGSHRLSSAASGIIIWYNTMGRYRQAPGKEREFFARISRRVGSTYYADSVKGRFTISRDNAKNTVYLQMNSLKPEDTAVYYCNRTRYRSFHYDYWGQGTKVTVSS | high polyreactivity |
| QVQRVESGGGLVQAGGSLRLSCAASGSILGIYGMGWYRQAPGKERELVAAISYSGGSTYYADSVKGRFTISSDNAKNTVYLQMNSLKPEDNAVYYCAADLTRGVSYYVDFYYWGQGTQVTVSS | low polyreactivity |
| QVQLVESGGGLVQAGGSLRLSCAASGSTFYYYAMGWYRQAPGKERELVAAITYSGGSTTYADSVKGRFTISRDNAKNTVYLQMNSLKPEDTAVYYCAAYVYRYHRVAYEYWGQGTQVTVSS | high polyreactivity |
| QVQLVESGGGLVQAGGSLRLSCAASGYIFGLYAMGWYRQAPGKERELVASITGGGSTYADSVKGRFTISRDNAKNTVYLQMISLKPEDTAVYYCAAESTVRPYEHSGDYWGQGTQVTVSS | low polyreactivity |
| QVQLVESGGGLVQAGGSLRLSCAASGSIFYYNAMGWYRQAPGKERELVAAISWSGDSTYYADSVKGRFTISRDNAKNTVYLQMNSLKPEDTAVYYCNTDLVPWTEYWYDYWGQGTQVTVSS | low polyreactivity |
| QVQLVESGGGLVQAGGSLRLSCAASGSTFTRNAMGWYRQAPGKERELVAAITSSGGSTYYADSVKGRFTISRDNAKNTVYLQMNSLKPEDTAVYYCAAYPHRPRDRELDHWGQGTQVTVSS | low polyreactivity |
| QVQLVESGGGLVQAGGSLRLSCAASGLIFYINAMGWYRQAPGKERELVAVISGGGSTNYADSVKGRFTISRDNAKNTVYLQMNSLKPEDTAVYYCNARRSHSYRHYDYWGQGTQVTVSS | low polyreactivity |
| QVQLVESGGGLVQAGGSLRLSCAASGRIFLYYAMGWYRQAPGKERELVAASTYTDGSTYYADSVKGRFTISRDNAKNTVYLQMNSLKPEDTAVYYCAAEFYYYDYWGQGTQVTVSS | low polyreactivity |
| QVQLVESGGGLVQAGGSLRLSCAASGSTFSYYAMGWYRQAPGKERELVAAITTSGGRTYYADSVKGRFTISRDNAKNTVYLQMNSLKPEDTAVYYCNARSGRLGDYWGQGTQVTVSS | high polyreactivity |
| QVQLVESGGGLVQAGGSLRLSCAASGSTFAWYAMGWYRQAPGKERELVAVITSTGRTYYADSVKGRFTISRDNAKNTVYLQMNSLKPEDSAVYYCAAQYGGGYLKPYRREYWGQGTQVTVSS | high polyreactivity |
| QVQLVESGGGLVQAGGSLRLSCAASGSIFTVNAMGWYIQAPGIERELVAAIDGSSGSTNYADSVKGRFTISRDIAKNTVYLQMNSLKPEDTAVYYCAADWSYEYGYWGQGTQVTVSS | low polyreactivity |

| Sequence | polyreactivity (PSR sort gate) |
| --- | --- |
| QVQLQECGCGLVQAGCSLRLSCAASGTFSNSLKWLYCQAPGKEREFVATIGVGGSTNYADSVKGRFTISRDNAKNTVYLQMNSLKPEDTAVYYCAARLDTVTDYYYWGQGTQVTVSS | low polyreactivity |
| QVQLVESGVGLVQAGGSLRLSCAASGSIFPHYAMGWYRQAPGKERELVAAISSGTSTNYADSVKGRFTISRDNAKNTVYLQMNSLKPEDTAVYFCAADYYSGYDSVDGDYNYWGQGTQVTVSS | low polyreactivity |
| QVQLVESGGGLVQAGGSLRLSCAASGSTFYLYAMGWYRQAPGKERELVAAITFRGSRTYYADSVKGRFTISRDNAKNTVYLQMNRLKPEDTAVYYCAKEKYRTREHDSWGQGTQVTVSS | low polyreactivity |
| QVQLVESGGGLVQAGGSLRLSCAASGSIFWVYTMGWYREAPGKERELVAASRSRGGSTYYADSVKGRFTISRDKAKNTVYLQMNSLKPEDTAVYYGNADYYYEVDSWGQGTQVTVSS | low polyreactivity |
| QVQLVESGGGLVQAGGSLRLSCAASGITFGSNAMGWYRQAPGKERELVAAISRSGGRTYYADSVKGRFTISRDNAKNTVSLQMNSLKPEDTAVYDCATDSYTTGEYWGQGTQVTVSS | high polyreactivity |
| QVQLVESGGGLVQAGGSLRLSCAASGSTFGIYAMGWYRPAPGKDREMVAAISSGVDTYYADSVKGRVTISRDNAKNTVDIQMNSLKPEDPAVYYCAADQFQGNSGFEYWGQGTQVTVSS | low polyreactivity |
| QVQLVESGGGLVQAGGSLRLSCAASGSIFDIYAMAWYRQAPGKERELVARIRGSGGRTYYADSVKGRFTISRDNAKNTVYLQMNSLKPEDTAVYYCNAGVRAVNRKYDYWGQGTQVTVSS | high polyreactivity |
| QVQLVESGGGLVQAGGSLRLSCAASGSTFGRYAMGWYRQAPGKERELVAAINSRGGRKYYADSVKGRFTISRDNAKNTVYLQMNSLIPEDTAVYYCAAPTGPNGYYSDRGDSWGQGTQLTVSS | low polyreactivity |
| QVQLEESGGGLVQAGGSLRLICAASGRTFSGNTMGWYIQAPGKERELVAAITGRGGSTYYADSEKGRFTISRDNEKNTVYLQMNSLKPVDTAVYYCAALRYTFAGRFDYWGQGTQVTVSS | high polyreactivity |
| QVQLVESGGGLVQAGGSLRLTCAASGSTFYTYAMGWYRQAPGNERELVAALSYGGGITYYADSVKGRFTISRDNEKNTVYIQMNSLKPEDTAVYYCAAVNGWQRYEFWGQGTQVTVSS | high polyreactivity |
| QVQLVDSGGGLVQAGGSLRLSCAASGSTFVPNAMGWYRQAPGKERELVASITSDGGTYYADSVKGRFTISRDNAKNTVYLQMNSLKPEDTAVYYCAADDNGVWVISYWWFDYWGQGTQVTVSS | high polyreactivity |
| QVQLVESGGGLVQAGGSLRLSCAASGSIFFRNVMGWYRQAPGKERELVAAISRSGSTNYADSVKGRFTISRDNAKNTVYLQMNSLKPEDTAVYYCAAQQWRRGRYRDTAGPMFAYDYWGQGTQVTVSS | low polyreactivity |
| QVQLVESGAGLVQAGASLRLSCAASGRIFSRYVMGWYRQAPGKEREFVASITWSGSSTYYADSVKGRFTLSRDNAKNTVYVQMNSLKPEDTAVYYCAALGLLSPSPWGTHIYEYDSWGQGTQVTVSS | low polyreactivity |
| QVQLVESGGGLVQAGGSLRLSCAASGSILSRYAMGWYRQAPGKERELVATITRRGGSTFYADSVKGRFTISRDNAKNTVYLQMNSLKPEDTAVYYCAVGRLFWGQGTQVTVSS | low polyreactivity |
| QVQLVESGGGLVQAGGSLRLSCAASGRTFYLYAMGWYRQAPGKERELVAAINTNGARTYYADSVKGRFTISRDHAKNTVYLQMNSLIPEDTAVYYCNADAYRVIANWIYDYWGQGTQVTVSS | low polyreactivity |
| QVQLVESGGGLVQAGGSLRLSCAASGSTFPYYAMGWYRQAPGKERELVAAISSSGGSTYYADSVKGRFTISRDNAKNTVYLQMNSLKPEDTAVYYCATSSRYVDGYEMDYWGQGTQVSVSS | high polyreactivity |
